Test results published in the nanobody polyreactivity screen of Harvey et al. (2022).

Test: yeast display, Sf9 membrane polyspecificity reagent, FACS + sequencing; frameworks hold sequencing errors
Outline: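 Polyreactivity labels are assigned by the sorting gate from which each nanobody was recovered. The gates were low and high (top ~1%), set on anti-HA fluorescence for expression and streptavidin fluorescence for reagent binding. Before sorting, galactose-induced (36–48 hours) yeast display cells were stained for 1 hour at 4 °C with 10% biotinylated, detergent-solubilized Sf9 membrane reagent.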

Row | Sequence | polyreactivity (PSR sort gate)
1 | QVQLVESGGCLVQAGGSLRLSCAASGRISPDYAMGWYRQAPGTERELVATISSGAGTTYYADSVKGRFTISRDNAKNTVYLQMNSLKPEDTAVYYCAAEDPSEFDYWGQGTQVTVSS | low polyreactivity
2 | QVQLVESGGCLVQAGGSLRLSCAASGRTFKQYAIGWSRQAPGKERELVAAITSGGSTYYADSVKGRFTISRDNAKNTVSLHMNSLKPEDNAVYYCNKESYFDTYRRYDSWGQCTQVTVSS | low polyreactivity
3 | QVQLVESGGCLVQAGGSLRLSCAASGRTFPYNVMGWYRQAPGKERELDAGITGSGDSTFYADSVKGRFTISRDNAKNTFYLQMNSLNPDDTSVYYCAARYRTLNDGYIRNYWGQGTQVTVSS | low polyreactivity
4 | QVQLVESGGCLVQAGGSLRLSCAASGRTFRWYAMGWYRQAPGKESELVAAINPGGSTNYADSVKGRFSISRDNAKNTVYLQMNSLKPEDTAVYYCNAAGYDALTHNYYWGQGTQVTVSS | low polyreactivity
5 | QVQLVESGGCLVQAGGSLRLSCAASGRTFYIYAMGWYRQAPGKERELVAAINFSDGSTSYADSVKGRFTISRDNAKHTVYLQMNSLKPEDTAVYYWGQGTKVTVSS | low polyreactivity
6 | QVQLVESGGCLVQAGGSLRLSCAASGRTFYPYAMGWYRQAPGQDRELVAAIRSSGGTTYYADSVKGRFTISRDNAKNTVYLQMNSLKREDTAVYYCAAFVDRQGGYYWGQGTQVTVSS | high polyreactivity
7 | QVQLVESGGCLVQAGGSLRLSCAASGRTLGYYTMGWYRQAPGKERELVATITPGGSTSYADSVKGRFTISRDNAKNTVYLQMNSLKPEDTAVYYCARTRPYYLLYSSNFRYDYWGQGTQVTVSS | high polyreactivity
8 | QVQLVESGGCLVQAGGSLRLSCAASGSIFDVNAMGLYRQAPGKERELVAAISDSGGSTYYADSVKGRFTISRDNAKNTVYLQMNSLKPEDTAVYYCNADWSLYNYYDFDYWGQGTQVTVSS | low polyreactivity
9 | QVQLVESGGCLVQAGGSLRLSCAASGSIFVAYAMGWYRQAPGKERELVAAITGRSGRTYYADSVKGRFTISRDNAKNTVYLQMNSLKPEDTAVYYCAARGYGTDDYDYCGQGTQVTVSS | high polyreactivity
10 | QVQLVESGGCLVQAGGSLRLSCAASGSTFDYYAMGWYTQAPGKERELVAAISSSGSSTYYADSVKGRFTISRDNAKNTVYLQMNSLKPEDTAVYYCAKGTNYRDDYWGQGTQVTVSS | low polyreactivity
11 | QVQLVESGGCLVQAGGSLRLSCAASGSTFGYNAMGWYRQATGKERELVAAITWTGASTYYADSVKGRFTISRDNAKNTVYLKINSLKPEDTEVYYCNRVGYQSMNYWGQGTQVTVSS | low polyreactivity
12 | QVQLVESGGCLVQAGGSLRLSCAASGSTFKTYTMGWYRQAPGKERELVAAITWSGGRTYYADSGKGRFTISRDNAKNTVYLQMNSLKPEDTAVYYCAADWGEEYTRDDYCGQGTQVTVSS | low polyreactivity
13 | QVQLVESGGCLVQAGGSLRLSCAASGSTFRYNAMGWYRPAPGKERELVAAITSSGGRTYYADSVKGRFTISRDNAKNTVYLQMNSLKPEDTAVYYCARRYLSVRGDSWGQGTQVTVSS | high polyreactivity
14 | QVQLVESGGCLVQAGGSLRLSCAASGSTFWGYTMGWYRQAPGKVRELVAAISSDGSTNYADSVKGRFTISRDNAKNTVYLQMNSLKPEDTAVYDCNTVYDPDTGQSDSWGQGTQVTVSS | low polyreactivity
15 | QVQLVESGGCLVQAGGSLRLSCAASGSTFYVYTMGWYTQAPGKESELVAAISWTDGDTYYADSVKGRFTISRDTAKKTVYLEMNSLKPEDTAVYYCAADIAWLWWYGPGYDYWGQGTQVTVSS | low polyreactivity
16 | QVQLVESGGCLVQAGGSLRLSCAASGYIFFINSMGWYRQAPGKERELVAAITRRGVSTYYADSVKGRFTISRDNAKNSVYLQMHSLKPEDTAVYYCATEHNHLGYYYWGQGTQVTVSS | low polyreactivity
17 | QVQLVESGGCLVQAGGSLRLSCAASRRIFNYYAMGWYRQAPGKERELVAAINSGGSTYADSVKGRFTISRDNAKNTVYLQMNSLKPEDTAVYYCAKDGQLLSGRERPSGYDHWGQGTQVTVSS | low polyreactivity
18 | QVQLVESGGCLVQAGGSLRLSCAATGSIFYGNTMVWYRQAPGKDRELLAAISSGGSTKYADSVKGRFTISRDNAKNTVYLQMNSLKPEDTAVYYCAADLPRYWVTWMDYRGQGTQVTVSS | low polyreactivity
19 | QVQLVESGGCLVQAGGSLRLSCADSGLTFTHYTKGWYRQAPGKVRELVAAITTSGGSTYYADSVKGRFTISRDNAKNTVYLQMNSLKPEDTAVYDCDSDVWYWTYIGEYWGQGTQVTVSS | high polyreactivity
20 | QVQLVESGGCLVQAGGSLRLSCASSGRTFLVYAMGWYRQAPGKERELVAAITSGGSTYYADSVKGRFTISRDNAKNTVYLQMNSLKPEDTAVYYCAAKIRGYPRRRYDYWGQGTQVTVSS | high polyreactivity
21 | QVQLVESGGCLVQAGGSLRLSCDASGGIFVSYAMGWYRQAPRKDRELVAAITSGGGTSYADSVKGRFTISRDNAKNTVYLQMNSLKPEDTAVYYCNADGYLAERFVIRLDEYRDYDYWGQGTQVTVSS | low polyreactivity
22 | QVQLVESGGCLVQAGGSLRLSCDAYGSTFDDNAMGWYRQAPGKERELVAGISTNGGSTSYADSVKGRFTISRDNAKNTVYLQMNSLKPEDTAVYYCAKGLYVHFDYWGQGTQVTVSS | low polyreactivity
23 | QVQLVESGGCLVQAGGSLRLSCPASGSNFPDNAMGRYRPAPGKERELVAAISLSGGRTYYADSVKGRFTISRDNAKNTVYLQMNSLKPDDTAVYYCNKLTRFVKYDYWGQGTQVTVSS | high polyreactivity
24 | QVQLVESGGCLVQAGGSLRLSCSASGRIFNTYAMGWYRQAPGKERDLVARISSGGTTYYADSVKGRFTISRDNAKNTVYLQMNSLKPEDTAVYYCNVRAVTPTRSRPFRYDYWGQGTQVTVSS | high polyreactivity
25 | QVQLVESGGCLVQAGGSLRLSCVASGRTFRRYAMGWYRQAPGKERELLSTITLNGGSTYYADSVKGRFTISRDNATNTVDLQMNSLKPEDTAVYDCKRCTNVVRRGVYSFGYDYWGEGTQVTVSS | low polyreactivity
26 | QVQLVESGGCLVQAGGSLRLSSAASGSTFRQYAMGWYRQAPGKERELVAAITWRGDNTYYADSVKGRFTISRDNAKNSVYLQMNSLKPEDTAVYYCAARWSYRLYWGYGYWGQGTQVTVSS | low polyreactivity
27 | QVQLVESGGCLVQAGGSLRLSWDASGSIFLGYTIGWYRQAPGKERELVAAINSSGGSTYYAYSVKGRFTISRDNAKNTVFLQMNSLKPDDTAVYYCADANSILLFDSWGQGTQVTVSS | low polyreactivity
28 | QVQLVESGGCLVQAGGSLRLTCAASGYIFANNARGWYRQAPGTERELVAAISSSGGRTYYADSVKGRFTISRDNAKNTVYLQMNSLKPEDTAVYYCAAESVDNIYYGFDYWGQGTQVTVSS | high polyreactivity
29 | QVQLVESGGCLVQAGGSLSLSCAASGSIFGWYVMGWYRQAPGKERELGAAISSVGSTYYADSVKGRFTISRDNAKNTVYLQMNSLKPEDTAVYYCAKLRYPYLFSDDSEYWGQGTQVTVSS | low polyreactivity
30 | QVQLVESGGCLVQAQGSLRLSCAASGFTFGYNAMGWYRQAPGKERELVAVISSRGGRTYYADSVKGRFTISRDNAKNTVYLQMYSLKPEDTAVYYCAKRSGSYSYPAVGGWGLGYCGQGTQVTVSS | high polyreactivity
